Measured values: US20200317768A1 (published 2020)

T1: cynomolgus monkey FcγRIIIaS extracellular domain, His-tagged (cynomolgus monkey, UniProt Q8SPW2 21-206 at identity 1.00))
T1 construct: also called cyno FcγRIIIaS; cynoFcγRIIIaS
T1 chain: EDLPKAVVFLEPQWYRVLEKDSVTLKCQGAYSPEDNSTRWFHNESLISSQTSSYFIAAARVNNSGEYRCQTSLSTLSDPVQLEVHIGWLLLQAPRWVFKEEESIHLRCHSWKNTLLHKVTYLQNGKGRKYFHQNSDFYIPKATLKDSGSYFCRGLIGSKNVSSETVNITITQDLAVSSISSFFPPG

B1: M103205H795-MY045/M103202L889-SK1 (antibody, human IgG1, kappa)
heavy: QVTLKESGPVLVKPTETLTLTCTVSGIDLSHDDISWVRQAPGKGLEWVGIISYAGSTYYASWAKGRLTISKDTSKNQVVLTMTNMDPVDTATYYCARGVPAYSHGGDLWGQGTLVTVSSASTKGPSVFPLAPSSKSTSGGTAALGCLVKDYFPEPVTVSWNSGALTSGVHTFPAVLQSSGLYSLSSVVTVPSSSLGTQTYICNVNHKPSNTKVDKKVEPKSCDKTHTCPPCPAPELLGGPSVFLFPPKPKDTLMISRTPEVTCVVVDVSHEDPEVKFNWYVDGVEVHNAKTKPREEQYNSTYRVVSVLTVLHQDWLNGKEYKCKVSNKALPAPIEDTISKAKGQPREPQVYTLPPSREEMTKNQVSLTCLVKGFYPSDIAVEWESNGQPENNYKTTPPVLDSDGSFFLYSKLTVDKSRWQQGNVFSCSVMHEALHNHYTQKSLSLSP
light: DIVMTQSPATLSLSPGERATLSCTSSQSVYHANWLSWFQQKPGQPPKLLIYWASTLAYGVPSRFSGSGSGTDFTLTISSLQPEDAATYYCAGGYGGGRYAFGQGTKVEIKRTVAAPSVFIFPPSDEQLKSGTASVVCLLNNFYPREAKVQWKVDNALQSGNSQESVTEQDSKDSTYSLSSTLTLSKADYEKHKVYACEVTHQGLSSPVTKSFNRGEC
notes: Substitution put into M103205H795-SG1
B2: M103205H795-MY071/M103202L889-SK1 (antibody, human IgG1, kappa)
heavy: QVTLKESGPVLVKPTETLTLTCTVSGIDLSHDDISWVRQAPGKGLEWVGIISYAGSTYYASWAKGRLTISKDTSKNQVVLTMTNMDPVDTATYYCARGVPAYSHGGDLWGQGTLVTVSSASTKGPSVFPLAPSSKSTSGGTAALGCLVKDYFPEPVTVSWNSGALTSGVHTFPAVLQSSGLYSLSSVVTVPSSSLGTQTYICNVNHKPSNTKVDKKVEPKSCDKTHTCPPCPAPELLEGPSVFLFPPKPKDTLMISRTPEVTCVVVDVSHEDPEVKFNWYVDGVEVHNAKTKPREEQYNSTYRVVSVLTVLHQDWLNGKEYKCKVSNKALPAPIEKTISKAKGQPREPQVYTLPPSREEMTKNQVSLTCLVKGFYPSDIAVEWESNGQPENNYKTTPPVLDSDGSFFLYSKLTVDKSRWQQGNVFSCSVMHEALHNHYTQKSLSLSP
light: B1 light
notes: as for B1
B3: M103205H795-MY196/M103202L889-SK1 (antibody, human IgG1, kappa)
heavy: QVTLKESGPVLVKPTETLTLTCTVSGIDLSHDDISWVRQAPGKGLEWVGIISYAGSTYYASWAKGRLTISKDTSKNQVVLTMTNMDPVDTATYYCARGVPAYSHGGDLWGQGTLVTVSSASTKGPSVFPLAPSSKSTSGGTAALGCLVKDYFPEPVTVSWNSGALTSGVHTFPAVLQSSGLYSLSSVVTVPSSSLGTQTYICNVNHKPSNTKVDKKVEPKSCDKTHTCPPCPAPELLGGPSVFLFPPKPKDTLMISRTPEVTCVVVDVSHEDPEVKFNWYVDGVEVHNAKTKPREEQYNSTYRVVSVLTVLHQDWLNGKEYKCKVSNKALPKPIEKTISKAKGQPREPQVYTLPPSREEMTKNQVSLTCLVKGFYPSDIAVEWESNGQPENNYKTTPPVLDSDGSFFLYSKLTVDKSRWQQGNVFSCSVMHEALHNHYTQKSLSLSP
light: B1 light
notes: as for B1
B4: M103205H795-MY064/M103202L889-SK1 (antibody, human IgG1, kappa)
heavy: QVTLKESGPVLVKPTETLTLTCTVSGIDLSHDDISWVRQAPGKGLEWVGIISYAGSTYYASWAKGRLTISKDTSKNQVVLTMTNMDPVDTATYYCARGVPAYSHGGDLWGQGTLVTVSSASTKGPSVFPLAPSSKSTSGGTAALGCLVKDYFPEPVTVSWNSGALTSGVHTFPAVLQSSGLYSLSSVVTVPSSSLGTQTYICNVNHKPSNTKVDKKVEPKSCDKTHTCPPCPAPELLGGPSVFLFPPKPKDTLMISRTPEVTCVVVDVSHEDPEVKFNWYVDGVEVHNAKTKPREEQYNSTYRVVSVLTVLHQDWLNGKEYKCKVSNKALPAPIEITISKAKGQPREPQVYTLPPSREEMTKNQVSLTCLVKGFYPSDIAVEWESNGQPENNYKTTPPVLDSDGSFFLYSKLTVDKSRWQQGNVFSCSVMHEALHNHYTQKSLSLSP
light: B1 light
notes: as for B1
B5: M103205H795-MY068/M103202L889-SK1 (antibody, human IgG1, kappa)
heavy: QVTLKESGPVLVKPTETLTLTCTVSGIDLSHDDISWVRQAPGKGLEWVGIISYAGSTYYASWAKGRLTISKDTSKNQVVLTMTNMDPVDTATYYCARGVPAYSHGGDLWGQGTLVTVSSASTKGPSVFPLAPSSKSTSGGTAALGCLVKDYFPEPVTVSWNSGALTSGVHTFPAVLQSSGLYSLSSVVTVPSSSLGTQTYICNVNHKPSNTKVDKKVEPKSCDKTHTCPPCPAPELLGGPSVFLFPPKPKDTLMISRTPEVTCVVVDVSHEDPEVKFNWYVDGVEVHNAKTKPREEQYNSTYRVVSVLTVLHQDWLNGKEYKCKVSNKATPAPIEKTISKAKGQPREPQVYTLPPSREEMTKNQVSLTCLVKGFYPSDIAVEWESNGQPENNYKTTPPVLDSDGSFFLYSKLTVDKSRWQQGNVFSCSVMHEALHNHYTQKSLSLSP
light: B1 light
notes: as for B1
B6: M103205H795-MY072/M103202L889-SK1 (antibody, human IgG1, kappa)
heavy: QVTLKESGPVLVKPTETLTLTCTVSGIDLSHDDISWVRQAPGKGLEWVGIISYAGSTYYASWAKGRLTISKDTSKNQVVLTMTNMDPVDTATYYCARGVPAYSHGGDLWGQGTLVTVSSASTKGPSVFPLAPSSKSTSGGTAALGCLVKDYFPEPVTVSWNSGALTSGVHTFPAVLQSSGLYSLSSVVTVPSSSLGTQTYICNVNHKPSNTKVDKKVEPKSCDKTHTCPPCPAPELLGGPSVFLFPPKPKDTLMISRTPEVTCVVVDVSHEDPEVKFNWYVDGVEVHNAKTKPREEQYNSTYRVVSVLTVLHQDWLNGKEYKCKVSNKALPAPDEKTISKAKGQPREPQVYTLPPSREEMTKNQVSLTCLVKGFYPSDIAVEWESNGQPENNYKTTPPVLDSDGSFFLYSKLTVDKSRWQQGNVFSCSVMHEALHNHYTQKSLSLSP
light: B1 light
notes: as for B1
B7: M103205H795-MY070/M103202L889-SK1 (antibody, human IgG1, kappa)
heavy: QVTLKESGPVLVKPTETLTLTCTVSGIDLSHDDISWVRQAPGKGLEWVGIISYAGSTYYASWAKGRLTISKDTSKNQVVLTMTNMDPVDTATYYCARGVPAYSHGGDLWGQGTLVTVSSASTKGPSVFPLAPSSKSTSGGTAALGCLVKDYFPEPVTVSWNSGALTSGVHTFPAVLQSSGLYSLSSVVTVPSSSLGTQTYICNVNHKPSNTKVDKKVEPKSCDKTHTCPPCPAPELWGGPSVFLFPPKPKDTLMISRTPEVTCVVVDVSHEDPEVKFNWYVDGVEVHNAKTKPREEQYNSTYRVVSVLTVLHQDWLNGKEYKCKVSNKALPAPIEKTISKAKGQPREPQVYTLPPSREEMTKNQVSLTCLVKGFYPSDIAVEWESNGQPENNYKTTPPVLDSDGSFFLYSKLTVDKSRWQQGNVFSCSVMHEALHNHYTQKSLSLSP
light: B1 light
notes: as for B1
B8: M103205H795-MY048/M103202L889-SK1 (P271D) (antibody, human IgG1, kappa)
heavy: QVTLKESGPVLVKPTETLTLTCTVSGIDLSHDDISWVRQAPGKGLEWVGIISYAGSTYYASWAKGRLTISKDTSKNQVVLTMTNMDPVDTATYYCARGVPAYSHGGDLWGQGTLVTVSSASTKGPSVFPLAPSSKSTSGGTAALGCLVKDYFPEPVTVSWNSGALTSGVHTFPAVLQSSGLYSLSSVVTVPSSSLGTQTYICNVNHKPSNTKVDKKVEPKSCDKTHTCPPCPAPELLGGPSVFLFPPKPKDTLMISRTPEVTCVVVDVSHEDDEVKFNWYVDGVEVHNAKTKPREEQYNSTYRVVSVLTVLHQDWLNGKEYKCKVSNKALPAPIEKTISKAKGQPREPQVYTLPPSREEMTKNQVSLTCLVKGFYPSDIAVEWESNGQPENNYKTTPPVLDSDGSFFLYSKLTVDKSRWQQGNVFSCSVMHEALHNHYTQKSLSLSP
light: B1 light
notes: Here the P271D molecule is meant; Put into M103205H795-SG1
B9: M103205H795-MY063/M103202L889-SK1 (antibody, human IgG1, kappa)
heavy: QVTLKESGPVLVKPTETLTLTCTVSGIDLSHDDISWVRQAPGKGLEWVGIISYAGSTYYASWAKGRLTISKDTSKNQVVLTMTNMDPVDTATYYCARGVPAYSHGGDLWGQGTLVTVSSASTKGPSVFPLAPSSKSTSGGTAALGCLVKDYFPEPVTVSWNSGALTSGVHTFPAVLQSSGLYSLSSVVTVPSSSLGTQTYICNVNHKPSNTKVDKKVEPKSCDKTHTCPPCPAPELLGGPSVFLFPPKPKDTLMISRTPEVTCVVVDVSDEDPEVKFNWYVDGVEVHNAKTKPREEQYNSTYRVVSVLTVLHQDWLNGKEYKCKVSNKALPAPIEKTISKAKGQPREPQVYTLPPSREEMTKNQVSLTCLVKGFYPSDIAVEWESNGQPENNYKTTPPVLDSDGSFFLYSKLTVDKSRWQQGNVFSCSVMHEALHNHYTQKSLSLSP
light: B1 light
notes: as for B1
B10: M103205H795-MY124/M103202L889-SK1 (antibody, human IgG1, kappa)
heavy: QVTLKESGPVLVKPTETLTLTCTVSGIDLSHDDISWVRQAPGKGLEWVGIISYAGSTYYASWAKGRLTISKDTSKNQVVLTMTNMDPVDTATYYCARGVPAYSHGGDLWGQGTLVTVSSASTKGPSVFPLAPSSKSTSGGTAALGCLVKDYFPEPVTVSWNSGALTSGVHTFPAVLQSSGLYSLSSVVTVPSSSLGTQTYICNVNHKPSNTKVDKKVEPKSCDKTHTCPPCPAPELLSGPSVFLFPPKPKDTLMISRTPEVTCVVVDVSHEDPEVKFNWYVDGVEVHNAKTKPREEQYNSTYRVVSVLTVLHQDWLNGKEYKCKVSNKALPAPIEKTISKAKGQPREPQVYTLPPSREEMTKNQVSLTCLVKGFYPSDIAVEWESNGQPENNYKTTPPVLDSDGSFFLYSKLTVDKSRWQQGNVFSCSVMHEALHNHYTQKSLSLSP
light: B1 light
notes: as for B1
B11: M103205H795-MY065/M103202L889-SK1 (antibody, human IgG1, kappa)
heavy: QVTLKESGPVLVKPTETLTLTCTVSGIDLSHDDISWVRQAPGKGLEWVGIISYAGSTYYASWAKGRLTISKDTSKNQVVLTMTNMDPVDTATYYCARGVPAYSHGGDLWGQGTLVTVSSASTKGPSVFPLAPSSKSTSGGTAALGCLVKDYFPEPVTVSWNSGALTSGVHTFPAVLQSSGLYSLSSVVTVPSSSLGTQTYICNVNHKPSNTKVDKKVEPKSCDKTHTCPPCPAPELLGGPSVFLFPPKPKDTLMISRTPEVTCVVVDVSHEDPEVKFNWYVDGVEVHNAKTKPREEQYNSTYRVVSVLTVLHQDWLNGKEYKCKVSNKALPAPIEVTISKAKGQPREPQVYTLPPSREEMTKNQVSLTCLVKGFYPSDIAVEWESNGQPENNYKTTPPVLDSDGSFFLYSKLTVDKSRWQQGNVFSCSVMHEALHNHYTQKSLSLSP
light: B1 light
notes: as for B1
B12: M103205H795-MY073/M103202L889-SK1 (antibody, human IgG1, kappa)
heavy: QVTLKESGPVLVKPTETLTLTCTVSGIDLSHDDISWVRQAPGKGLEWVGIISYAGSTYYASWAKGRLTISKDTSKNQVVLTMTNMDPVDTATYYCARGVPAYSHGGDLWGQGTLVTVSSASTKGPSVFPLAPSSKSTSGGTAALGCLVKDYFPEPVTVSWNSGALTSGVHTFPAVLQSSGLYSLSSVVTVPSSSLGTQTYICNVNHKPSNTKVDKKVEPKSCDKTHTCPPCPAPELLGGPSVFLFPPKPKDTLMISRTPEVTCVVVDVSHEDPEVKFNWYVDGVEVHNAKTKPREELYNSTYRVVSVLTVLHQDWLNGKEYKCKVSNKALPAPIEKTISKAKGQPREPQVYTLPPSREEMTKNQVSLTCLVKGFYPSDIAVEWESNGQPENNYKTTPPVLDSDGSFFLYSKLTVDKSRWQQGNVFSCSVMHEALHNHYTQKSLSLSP
light: B1 light
notes: as for B1
B13: M103205H795-MY069/M103202L889-SK1 (antibody, human IgG1, kappa)
heavy: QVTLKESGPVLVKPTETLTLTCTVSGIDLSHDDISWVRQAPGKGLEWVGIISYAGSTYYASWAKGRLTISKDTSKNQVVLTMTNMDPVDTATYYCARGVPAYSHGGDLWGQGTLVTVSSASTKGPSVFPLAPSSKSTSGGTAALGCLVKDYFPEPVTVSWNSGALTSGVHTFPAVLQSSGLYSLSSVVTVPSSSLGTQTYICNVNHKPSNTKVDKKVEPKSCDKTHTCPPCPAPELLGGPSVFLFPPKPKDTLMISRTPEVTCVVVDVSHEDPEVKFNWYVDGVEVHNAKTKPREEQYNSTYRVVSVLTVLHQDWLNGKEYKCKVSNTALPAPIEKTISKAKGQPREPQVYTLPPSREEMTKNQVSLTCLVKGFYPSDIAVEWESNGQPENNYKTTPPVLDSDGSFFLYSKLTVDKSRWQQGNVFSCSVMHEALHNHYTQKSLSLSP
light: B1 light
notes: as for B1

Target: T1, cynomolgus monkey FcγRIIIaS …
Assay: SPR; KD of SG1 / KD of variant;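 further: relative to parent M103205H795-SG1 carrying the SG1 human heavy chain constant region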

KD fold (SG1 = 1) | Binder
2.57 fold | B1
1.29 fold | B2
0.6 fold | B3
3 fold | B4
0.67 fold | B5
6.79 fold | B6
0.73 fold | B7
0.97 fold | B8
5.37 fold | B9
0.28 fold | B10
3.27 fold | B11
2.12 fold | B12
4.19 fold | B13
